From patent US20190010203A1 (ADEPTHERA, published 2019) come the findings set out here.

The chains are these.
B1: SEQ ID NO: 78 (peptide)
peptide: [AEEEA]K(Palmitoyl)VQKLAHQIYQFTDKDKDNSAPVDPSSPHSY-NH2
modifications: N-terminus assumed
SMILES: CCCCCCCCCCCCCCCC(=O)NCCCC[C@H](NC(=O)COCCOCCOCCN)C(=O)N[C@H](C(=O)N[C@@H](CCC(N)=O)C(=O)N[C@@H](CCCCN)C(=O)N[C@@H](CC(C)C)C(=O)N[C@@H](C)C(=O)N[C@@H](Cc1c[nH]cn1)C(=O)N[C@@H](CCC(N)=O)C(=O)N[C@H](C(=O)N[C@@H](Cc1ccc(O)cc1)C(=O)N[C@@H](CCC(N)=O)C(=O)N[C@@H](Cc1ccccc1)C(=O)N[C@H](C(=O)N[C@@H](CC(=O)O)C(=O)N[C@@H](CCCCN)C(=O)N[C@@H](CC(=O)O)C(=O)N[C@@H](CCCCN)C(=O)N[C@@H](CC(=O)O)C(=O)N[C@@H](CC(N)=O)C(=O)N[C@@H](CO)C(=O)N[C@@H](C)C(=O)N1CCC[C@H]1C(=O)N[C@H](C(=O)N[C@@H](CC(=O)O)C(=O)N1CCC[C@H]1C(=O)N[C@@H](CO)C(=O)N[C@@H](CO)C(=O)N1CCC[C@H]1C(=O)N[C@@H](Cc1c[nH]cn1)C(=O)N[C@@H](CO)C(=O)N[C@@H](Cc1ccc(O)cc1)C(N)=O)C(C)C)[C@@H](C)O)[C@@H](C)CC)C(C)C

Non-standard residues stand in square brackets, D forms with d. No end group written: not given here. *: point of attachment. Palmitoyl = CCCCCCCCCCCCCCCC(=O)*; AEEEA = NCCOCCOCCOCC(=O)O; AEEA = NCCOCCOCC(=O)O

T3 sequence (Q16602 23-461 limits assumed, chain 1 of 2): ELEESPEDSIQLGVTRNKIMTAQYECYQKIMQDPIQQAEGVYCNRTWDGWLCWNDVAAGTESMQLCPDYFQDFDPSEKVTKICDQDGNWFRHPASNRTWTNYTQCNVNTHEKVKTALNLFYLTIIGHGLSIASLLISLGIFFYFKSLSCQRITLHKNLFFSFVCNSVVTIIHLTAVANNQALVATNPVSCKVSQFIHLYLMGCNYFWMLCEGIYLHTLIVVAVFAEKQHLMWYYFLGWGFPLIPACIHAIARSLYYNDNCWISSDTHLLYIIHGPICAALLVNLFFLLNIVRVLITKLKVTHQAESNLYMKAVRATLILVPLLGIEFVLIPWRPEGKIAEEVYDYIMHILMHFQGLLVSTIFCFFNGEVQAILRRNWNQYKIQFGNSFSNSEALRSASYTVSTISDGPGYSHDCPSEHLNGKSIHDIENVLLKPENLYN
T3 sequence (O60896 24-148 limits assumed, chain 2 of 2): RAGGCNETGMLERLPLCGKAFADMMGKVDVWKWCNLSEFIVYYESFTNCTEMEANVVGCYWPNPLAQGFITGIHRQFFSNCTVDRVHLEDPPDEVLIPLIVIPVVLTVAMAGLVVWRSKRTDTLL
T2 sequence (Q16602 23-461 limits assumed, chain 1 of 2): as the sequence (Q16602 23-461 limits assumed, chain 1 of 2) above
T2 sequence (O60895 43-175 limits assumed, chain 2 of 2): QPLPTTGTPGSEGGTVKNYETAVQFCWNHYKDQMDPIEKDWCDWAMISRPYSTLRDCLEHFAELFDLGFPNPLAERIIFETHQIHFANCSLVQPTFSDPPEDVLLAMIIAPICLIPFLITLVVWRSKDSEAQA
T1 sequence (Q16602 23-461 limits assumed, chain 1 of 2): as the sequence (Q16602 23-461 limits assumed, chain 1 of 2) above
T1 sequence (O60894 27-148 limits assumed, chain 2 of 2): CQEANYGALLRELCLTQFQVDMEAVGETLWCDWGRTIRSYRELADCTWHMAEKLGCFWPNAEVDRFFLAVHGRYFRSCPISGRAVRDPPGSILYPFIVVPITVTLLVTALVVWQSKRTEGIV

One assay concerns the target T1, CLR/RAMP1 receptor (UniProt Q16602 23-461; O60894 27-148, limits assumed). The assay can be described thus: cell-based or functional assay.
Regarding Palmitoyl-KGCRFGTCTVQKLAHQIYQFTDKDSAPVDPSSPHSY-NH2 (ends and bridges not checked) [SEQ ID NO: 92], the “EC50 (nM), CLR/RAMP1 cAMP assay” value was 0.4 nM.

Regarding miniPEG-K(Palmitoyl)GCRFGTCTVQKLAHQIYQFTDKDSAPVDPSSPHSY-NH2 (ends and bridges not checked) [SEQ ID NO: 48], the “EC50 (nM), CLR/RAMP1 cAMP assay” value was 0.3 nM.

Turning to Palmitoyl-KGCRFGTCTVQKLAHQIYQFTDKDVAPRSKISPQGY-NH2 (ends and bridges not checked) [SEQ ID NO: 103], the “EC50 (nM), CLR/RAMP1 cAMP assay” value was determined as 4.5 nM.

The next assay addresses T2, CLR/RAMP2 receptor (UniProt Q16602 23-461; O60895 43-175, limits assumed). Put plainly: cell-based or functional assay.
Consider Palmitoyl-KGCRFGTCTVQKLAHQIYQFTDKDSAPVDPSSPHSY-NH2 (ends and bridges not checked) [SEQ ID NO: 92], for which the “EC50 (nM), CLR/RAMP2 arrestin assay” value stood at 0.3 nM.

Regarding miniPEG-K(Palmitoyl)GCRFGTCTVQKLAHQIYQFTDKDSAPVDPSSPHSY-NH2 (ends and bridges not checked) [SEQ ID NO: 48], the “EC50 (nM), CLR/RAMP2 arrestin assay” value turned out to be 0.2 nM.

On to Palmitoyl-KGCRFGTCTVQKLAHQIYQFTDKDVAPRSKISPQGY-NH2 (ends and bridges not checked) [SEQ ID NO: 103], for which the “EC50 (nM), CLR/RAMP2 arrestin assay” value was 0.7 nM.

On to KGCRFGTCTVQKLAHQIYQFTDKDKDNVAPRSKISPQGY (N-terminal miniPEG; palmitoyl on Lys 1 side chain, K(PAL); C-terminal amide) [SEQ ID NO: 69], for which the “EC50 (nM), CLR/RAMP2 arrestin assay” value was determined as 0.6 nM.

Another assay has as its target T3, CLR/RAMP3 receptor (UniProt Q16602 23-461; O60896 24-148, limits assumed). The assay can be described thus: cell-based or functional assay.
Consider Palmitoyl-KGCRFGTCTVQKLAHQIYQFTDKDSAPVDPSSPHSY-NH2 (ends and bridges not checked) [SEQ ID NO: 92], for which the “EC50 (nM), CLR/RAMP3 cAMP assay” value turned out to be 0.2 nM.

For miniPEG-K(Palmitoyl)GCRFGTCTVQKLAHQIYQFTDKDSAPVDPSSPHSY-NH2 (ends and bridges not checked) [SEQ ID NO: 48], the “EC50 (nM), CLR/RAMP3 cAMP assay” value was 0.07 nM.

Palmitoyl-KGCRFGTCTVQKLAHQIYQFTDKDVAPRSKISPQGY-NH2 (ends and bridges not checked) [SEQ ID NO: 103]: the “EC50 (nM), CLR/RAMP3 cAMP assay” value came to 0.3 nM.

As to KGCRFGTCTVQKLAHQIYQFTDKDKDNVAPRSKISPQGY (N-terminal miniPEG; palmitoyl on Lys 1 side chain, K(PAL); C-terminal amide) [SEQ ID NO: 69], the “EC50 (nM), CLR/RAMP3 cAMP assay” value stood at 0.6 nM.

For the molecule miniPEG-K(Palmitoyl)GCRFGTCTVQKLAHQIYQFTDKDVAPRSKISPQGY-NH2 (ends and bridges not checked) [SEQ ID NO: 101], the “EC50 (nM), CLR/RAMP3 cAMP assay” value came out at 0.5 nM.

The target in a further assay is T1, CLR/RAMP1 receptor. Put plainly: cell-based or functional assay. The source holds these as a separate data set.
On to Palmitoyl-KVQKLAHQIYSAPVDPSSPHSY-NH2 [SEQ ID NO: 122], for which the “IC50 (nM), CGRP-stimulated CLR/RAMP1 cAMP assay” value was 7.3 nM.

For the molecule Palmitoyl-KVQNLSHRLWQLMGPAGSAPVDPSSPHSY-NH2 [SEQ ID NO: 120], the “IC50 (nM), CGRP-stimulated CLR/RAMP1 cAMP assay” value is 5.8 nM.

Palmitoyl-KVQKLAHQISAPVDPSSPHSY-NH2 [SEQ ID NO: 123]: the “IC50 (nM), CGRP-stimulated CLR/RAMP1 cAMP assay” value was determined as 4.7 nM.

For Ac-VTHRLAGLLSRFTDKDKDNVAPRSKISPQGY-NH2 [SEQ ID NO: 115], the “IC50 (nM), CGRP-stimulated CLR/RAMP1 cAMP assay” value worked out at 1880 nM.

With Palmitoyl-KVQKLAHQIYQFTDKDSAPVDPSSPHSY-NH2 [SEQ ID NO: 121], the “IC50 (nM), CGRP-stimulated CLR/RAMP1 cAMP assay” value was determined as 3.2 nM.

With [AEEA]K(Palmitoyl)VQKLAHQIYSAPVDPSSPHSY-NH2 [SEQ ID NO: 114], the “IC50 (nM), CGRP-stimulated CLR/RAMP1 cAMP assay” value worked out at 4.8 nM.

With Palmitoyl-TVQKLAHQIYQFTDKDKDNSAPVDPSSPHSY-NH2 [SEQ ID NO: 77], the “IC50 (nM), CGRP-stimulated CLR/RAMP1 cAMP assay” value amounted to 9.9 nM.

Take Palmitoyl-KVQKLAHQSAPVDPSSPHSY-NH2 [SEQ ID NO: 124]: the “Max Activity % of positive control, CGRP-stimulated CLR/RAMP1 antagonist assay” value is 95 % of positive control.

On to [AEEA]K(Palmitoyl)VQKLAHQIYQFTDKDSAPVDPSSPHSY-NH2 [SEQ ID NO: 112], for which the “IC50 (nM), CGRP-stimulated CLR/RAMP1 cAMP assay” value came to 1.8 nM.

Ac-TVQKLAHQIYQFTDKDKDNSAPVDPSSPHSY-NH2 [SEQ ID NO: 76]: the “IC50 (nM), CGRP-stimulated CLR/RAMP1 cAMP assay” value was 1120 nM.

As to Palmitoyl-KVQKLAHQIYQFTDKSAPVDPSSPHSY-NH2 [SEQ ID NO: 125], the “IC50 (nM), CGRP-stimulated CLR/RAMP1 cAMP assay” value came to 7 nM.

Turning to B1, the “IC50 (nM), CGRP-stimulated CLR/RAMP1 cAMP assay” value stood at 4.8 nM and the “Max Activity % of positive control, CGRP-stimulated CLR/RAMP1 antagonist assay” value is 104 % of positive control.

With Ac-TVQKLAHRLWQLMGPDKDNVAPRSKISPQGY-NH2 [SEQ ID NO: 116], the “IC50 (nM), CGRP-stimulated CLR/RAMP1 cAMP assay” value is 152 nM.

As to Palmitoyl-KVQKLAHQIYQFTDKDVAPRSKISPQGY-NH2 [SEQ ID NO: 119], the “IC50 (nM), CGRP-stimulated CLR/RAMP1 cAMP assay” value stood at 21 nM.

The target in a further assay is T2, CLR/RAMP2 receptor. The assay can be described thus: cell-based or functional assay. This is another data set of the same source.
As for Palmitoyl-KVQKLAHQIYSAPVDPSSPHSY-NH2 [SEQ ID NO: 122], the “IC50 (nM), ADM-stimulated CLR/RAMP2 arrestin assay” value was found to be 61 nM.

For Palmitoyl-KVQNLSHRLWQLMGPAGSAPVDPSSPHSY-NH2 [SEQ ID NO: 120], the “IC50 (nM), ADM-stimulated CLR/RAMP2 arrestin assay” value amounted to 85 nM.

Take Palmitoyl-KVQKLAHQISAPVDPSSPHSY-NH2 [SEQ ID NO: 123]: the “IC50 (nM), ADM-stimulated CLR/RAMP2 arrestin assay” value amounted to 50 nM.

As for Ac-VTHRLAGLLSRFTDKDKDNVAPRSKISPQGY-NH2 [SEQ ID NO: 115], the “IC50 (nM), ADM-stimulated CLR/RAMP2 arrestin assay” value came to 117 nM.

Turning to Palmitoyl-KVQKLAHQIYQFTDKDSAPVDPSSPHSY-NH2 [SEQ ID NO: 121], the “IC50 (nM), ADM-stimulated CLR/RAMP2 arrestin assay” value came to 4.9 nM.

Regarding [AEEA]K(Palmitoyl)VQKLAHQIYSAPVDPSSPHSY-NH2 [SEQ ID NO: 114], the “IC50 (nM), ADM-stimulated CLR/RAMP2 arrestin assay” value was 146 nM.

As to Palmitoyl-TVQKLAHQIYQFTDKDKDNSAPVDPSSPHSY-NH2 [SEQ ID NO: 77], the “IC50 (nM), ADM-stimulated CLR/RAMP2 arrestin assay” value was determined as 47 nM.

As to Palmitoyl-KVQKLAHQSAPVDPSSPHSY-NH2 [SEQ ID NO: 124], the “Max Activity % of positive control, ADM-stimulated CLR/RAMP2 antagonist assay” value was 103 % of positive control.

On to [AEEA]K(Palmitoyl)VQKLAHQIYQFTDKDSAPVDPSSPHSY-NH2 [SEQ ID NO: 112], for which the “IC50 (nM), ADM-stimulated CLR/RAMP2 arrestin assay” value is 5.3 nM.

As to Ac-TVQKLAHQIYQFTDKDKDNSAPVDPSSPHSY-NH2 [SEQ ID NO: 76], the “IC50 (nM), ADM-stimulated CLR/RAMP2 arrestin assay” value was 289 nM.

For Palmitoyl-KVQKLAHQIYQFTDKSAPVDPSSPHSY-NH2 [SEQ ID NO: 125], the “IC50 (nM), ADM-stimulated CLR/RAMP2 arrestin assay” value came out at 7.1 nM.

For B1, the “IC50 (nM), ADM-stimulated CLR/RAMP2 arrestin assay” value was 34 nM and the “Max Activity % of positive control, ADM-stimulated CLR/RAMP2 antagonist assay” value was 107 % of positive control.

As for Ac-TVQKLAHRLWQLMGPDKDNVAPRSKISPQGY-NH2 [SEQ ID NO: 116], the “IC50 (nM), ADM-stimulated CLR/RAMP2 arrestin assay” value was found to be 7.3 nM.

As for Palmitoyl-KVQKLAHQIYQFTDKDVAPRSKISPQGY-NH2 [SEQ ID NO: 119], the “IC50 (nM), ADM-stimulated CLR/RAMP2 arrestin assay” value came to 0.6 nM.

Another assay concerns the target T3, CLR/RAMP3 receptor. Put plainly: cell-based or functional assay. The source holds these as a separate data set.
As for Palmitoyl-KVQKLAHQIYSAPVDPSSPHSY-NH2 [SEQ ID NO: 122], the “IC50 (nM), CLR/RAMP3 cAMP antagonist assay” value is 4.1 nM.

In the case of Palmitoyl-KVQNLSHRLWQLMGPAGSAPVDPSSPHSY-NH2 [SEQ ID NO: 120], the “IC50 (nM), CLR/RAMP3 cAMP antagonist assay” value came out at 9.2 nM.

For Ac-VTHRLAGLLSRFTDKDKDNVAPRSKISPQGY-NH2 [SEQ ID NO: 115], the “IC50 (nM), CLR/RAMP3 cAMP antagonist assay” value was found to be 115 nM.

Turning to Palmitoyl-KVQKLAHQIYQFTDKDSAPVDPSSPHSY-NH2 [SEQ ID NO: 121], the “IC50 (nM), CLR/RAMP3 cAMP antagonist assay” value was 1.8 nM.

With [AEEA]K(Palmitoyl)VQKLAHQIYSAPVDPSSPHSY-NH2 [SEQ ID NO: 114], the “IC50 (nM), CLR/RAMP3 cAMP antagonist assay” value was 8.4 nM.

For Palmitoyl-KVQKLAHQSAPVDPSSPHSY-NH2 [SEQ ID NO: 124], the “Max Activity % of positive control, CLR/RAMP3 antagonist assay” value was 102 % of positive control.

For the molecule [AEEA]K(Palmitoyl)VQKLAHQIYQFTDKDSAPVDPSSPHSY-NH2 [SEQ ID NO: 112], the “IC50 (nM), CLR/RAMP3 cAMP antagonist assay” value worked out at 2.3 nM.

Regarding B1, the “IC50 (nM), CLR/RAMP3 cAMP antagonist assay” value came to 0.8 nM and the “Max Activity % of positive control, CLR/RAMP3 antagonist assay” value is 101 % of positive control.

For Ac-TVQKLAHRLWQLMGPDKDNVAPRSKISPQGY-NH2 [SEQ ID NO: 116], the “IC50 (nM), CLR/RAMP3 cAMP antagonist assay” value stood at 53 nM.

Consider Palmitoyl-KVQKLAHQIYQFTDKDVAPRSKISPQGY-NH2 [SEQ ID NO: 119], for which the “IC50 (nM), CLR/RAMP3 cAMP antagonist assay” value stood at 1.5 nM.
